# Laboratory results taken from IntAct's records for PubMed 25772236.
# B1: E1B 55 kDa protein (Human adenovirus C serotype 5 (HAdV-5)), P03243-1 (parent)
# chain: MERRNPSERGVPAGFSGHASVESGCETQESPATVVFRPPGDNTDGGAAAAAGGSQAAAAGAEPMEPESRPGPSGMNVVQVAELYPELRRILTITEDGQGLKGVKRERGACEATEEARNLAFSLMTRHRPECITFQQIKDNCANELDLLAQKYSIEQLTTYWLQPGDDFEEAIRVYAKVALRPDCKYKISKLVNIRNCCYISGNGAEVEIDTEDRVAFRCSMINMWPGVLGMDGVVIMNVRFTGPNFSGTVFLANTNLILHGVSFYGFNNTCVEAWTDVRVRGCAFYCCWKGVVCRPKSRASIKKCLFERCTLGILSEGNSRVRHNVASDCGCFMLVKSVAVIKHNMVCGNCEDRASQMLTCSDGNCHLLKTIHVASHSRKAWPVFEHNILTRCSLHLGNRRGVFLPYQCNLSHTKILLEPESMSKVNLNGVFDMTMKIWKVLRYDETRTRCRPCECGGKHIRNQPVMLDVTEELRPDHLVLACTRAEFGSSDEDTD
# B2: E1B 55 kDa protein (Human adenovirus C serotype 5 (HAdV-5)), P03243-1 (parent)
# chain: B1 chain
# partner: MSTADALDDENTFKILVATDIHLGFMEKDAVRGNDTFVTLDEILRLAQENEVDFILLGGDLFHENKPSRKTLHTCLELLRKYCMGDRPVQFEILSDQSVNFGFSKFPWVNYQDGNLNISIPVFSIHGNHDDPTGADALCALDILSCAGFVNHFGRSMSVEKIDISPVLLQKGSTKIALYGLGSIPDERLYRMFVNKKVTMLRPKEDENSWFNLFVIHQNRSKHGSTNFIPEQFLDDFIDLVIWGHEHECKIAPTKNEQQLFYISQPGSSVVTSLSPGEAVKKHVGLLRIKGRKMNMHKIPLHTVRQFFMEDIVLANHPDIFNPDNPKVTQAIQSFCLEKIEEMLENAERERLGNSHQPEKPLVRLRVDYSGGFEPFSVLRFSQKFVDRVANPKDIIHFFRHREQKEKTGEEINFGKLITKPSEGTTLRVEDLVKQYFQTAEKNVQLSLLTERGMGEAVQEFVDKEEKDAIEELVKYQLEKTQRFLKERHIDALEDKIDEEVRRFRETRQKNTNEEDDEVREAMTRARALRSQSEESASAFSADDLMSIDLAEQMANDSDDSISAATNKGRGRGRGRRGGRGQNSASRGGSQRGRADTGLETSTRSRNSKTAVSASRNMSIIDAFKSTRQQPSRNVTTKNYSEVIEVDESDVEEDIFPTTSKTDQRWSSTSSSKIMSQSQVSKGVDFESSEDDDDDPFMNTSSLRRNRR
# Variants of: B1
# Details: with PML
row,Variant,effect of a mutation on the interaction
1,K104R,decreasing interaction strength
2,R443A,decreasing interaction strength

# Variants of: B1
# Details: with DAXX
row,Variant,effect of a mutation on the interaction
1,R443A,decreasing interaction strength

# Variants of: B1
# Details: with PML
# Remark: another data set of the same source
row,Variant,effect of a mutation on the interaction
1,R448A;T449A;R450A,disrupting interaction strength

# Variants of: B2
# Details: with mre11_human MRE11, P49959
row,Variant,effect of a mutation on the interaction
1,K104R,decreasing interaction strength
